Molecular target: FKBP_C-term (FKBP fused at its C-terminal end to the C-terminal NanoLuc fragment N2)
Experiment: split reporter

luminescence without rapamycin as percent of that with rapamycin: 3%
Substance: FRB_N-term (FRB fused at its C-terminal end to the N-terminal NanoLuc fragment N1)
